US20230287598A1 (TAURUS BIOSCIENCES, published 2023)

T1: CXCR1 (UniProt P25024 1-350, limits assumed)
T1 construct: whole, on cells; DiscoveRx PathHunter cell line; any reporter tag on the receptor is not described; also called CXCR1 receptor; CXCR1-U2OS
T1 sequence (looked up): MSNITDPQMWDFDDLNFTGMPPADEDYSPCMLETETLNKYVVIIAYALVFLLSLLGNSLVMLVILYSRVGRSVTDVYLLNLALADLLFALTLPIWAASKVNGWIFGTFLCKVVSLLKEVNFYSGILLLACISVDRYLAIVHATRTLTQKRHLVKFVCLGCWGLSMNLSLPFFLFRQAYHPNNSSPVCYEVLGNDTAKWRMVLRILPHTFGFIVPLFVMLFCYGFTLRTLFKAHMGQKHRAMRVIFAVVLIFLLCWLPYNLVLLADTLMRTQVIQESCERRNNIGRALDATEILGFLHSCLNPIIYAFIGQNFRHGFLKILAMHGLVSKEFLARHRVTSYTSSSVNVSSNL


Target: T1, CXCR1
Experiment: flow cytometry, supernatant at 5 nM IgG

| Binder | Specific Binding (CXCR1-Cell median AFU / Parental Cell median AFU) |
| --- | --- |
| VH4-34+CDR3-IL8_CDR1-Cow_CDR2-E50S_Q5RQ6E / VL1-51 S2A, T5N, P8S, A12G, A13S, P14L, K46R, L47T, D51G, N52D, N53T, K54S, P56A IgG (antibody) VH: QVQLREWGAGLLKPSETLSLTCTASGFSLSDKAVGWIRQPPGKGLEWIGSINHSGSTNYNPSLKSRVTISVDTSKNQFSLKLSSVTAADTAVYYCTSVHQETKKYQSPRSAKELRCQCIKTYSKPFHPKFIKELRVIESGPHCANTEIIVKLSDGRELCLDPKENWVQRVVEKFLKRAENSGSGSYTYNYEWHVDVWGQGLLVTVSS light: QAVLNQPSSVSGSLGQKVTISCSGSSSNIGNNYVSWYQQLPGTAPRTLIYGDTSRASGIPDRFSGSKSGTSATLGITGLQTGDEADYYCASAEDSSSNAVFGSGTTLTVLGQPKAAPSVTLFPPSSEELQANKATLVCLISDFYPGAVTVAWKADSSPVKAGVETTTPSKQSNNKYAASSYLSLTPEQWKSHRSYSCQVTHEGSTVEKTVAPTECS | 2 |
| VH4-34+CDR3-IL8_CDR1-Cow_CDR2-Cow_Q5RQ6E / VL1-51 S2A, T5N, P8S, A12G, A13S, P14L, K46R, L47T, D51G, N52D, N53T, K54S, P56A IgG (antibody) VH: QVQLREWGAGLLKPSETLSLTCTASGFSLSDKAVGWIRQPPGKGLEWLGSIDTGGNTGYNPSLKSRVTISVDTSKNQFSLKLSSVTAADTAVYYCTSVHQETKKYQSPRSAKELRCQCIKTYSKPFHPKFIKELRVIESGPHCANTEIIVKLSDGRELCLDPKENWVQRVVEKFLKRAENSGSGSYTYNYEWHVDVWGQGLLVTVSS light: QAVLNQPSSVSGSLGQKVTISCSGSSSNIGNNYVSWYQQLPGTAPRTLIYGDTSRASGIPDRFSGSKSGTSATLGITGLQTGDEADYYCASAEDSSSNAVFGSGTTLTVLGQPKAAPSVTLFPPSSEELQANKATLVCLISDFYPGAVTVAWKADSSPVKAGVETTTPSKQSNNKYAASSYLSLTPEQWKSHRSYSCQVTHEGSTVEKTVAPTECS | 2 |
| VH4-34+CDR3-IL8_CDR1-Cow_Q5RQ6E / VL1-51 I29V, N32G, K46R, L47T, D51G, N52D, N53T IgG (antibody) VH: QVQLREWGAGLLKPSETLSLTCTASGFSLSDKAVGWIRQPPGKGLEWIGEINHSGSTNYNPSLKSRVTISVDTSKNQFSLKLSSVTAADTAVYYCTSVHQETKKYQSPRSAKELRCQCIKTYSKPFHPKFIKELRVIESGPHCANTEIIVKLSDGRELCLDPKENWVQRVVEKFLKRAENSGSGSYTYNYEWHVDVWGQGLLVTVSS light: QSVLTQPPSVSAAPGQKVTISCSGSSSNVGNGYVSWYQQLPGTAPRTLIYGDTKRPSGIPDRFSGSKSGTSATLGITGLQTGDEADYYCASAEDSSSNAVFGSGTTLTVLGQPKAAPSVTLFPPSSEELQANKATLVCLISDFYPGAVTVAWKADSSPVKAGVETTTPSKQSNNKYAASSYLSLTPEQWKSHRSYSCQVTHEGSTVEKTVAPTECS | 1 |
| VH4-34+CDR3-IL8_CDR1-Cow_CDR2-E50S_Q5RQ6E / VL1-51 S2A, T5N, P8S, A12G, A13S, P14L, D51G, N52D, N53T IgG (antibody) VH: QVQLREWGAGLLKPSETLSLTCTASGFSLSDKAVGWIRQPPGKGLEWIGSINHSGSTNYNPSLKSRVTISVDTSKNQFSLKLSSVTAADTAVYYCTSVHQETKKYQSPRSAKELRCQCIKTYSKPFHPKFIKELRVIESGPHCANTEIIVKLSDGRELCLDPKENWVQRVVEKFLKRAENSGSGSYTYNYEWHVDVWGQGLLVTVSS light: QAVLNQPSSVSGSLGQKVTISCSGSSSNIGNNYVSWYQQLPGTAPKLLIYGDTKRPSGIPDRFSGSKSGTSATLGITGLQTGDEADYYCASAEDSSSNAVFGSGTTLTVLGQPKAAPSVTLFPPSSEELQANKATLVCLISDFYPGAVTVAWKADSSPVKAGVETTTPSKQSNNKYAASSYLSLTPEQWKSHRSYSCQVTHEGSTVEKTVAPTECS | 2 |
| VH4-34+CDR3-IL8_CDR1-Cow_Q5RQ6E / VL1-51 I29V, N32G, K46R, L47T, D51G, N52D, N53T, K54S, P56A IgG (antibody) VH: QVQLREWGAGLLKPSETLSLTCTASGFSLSDKAVGWIRQPPGKGLEWIGEINHSGSTNYNPSLKSRVTISVDTSKNQFSLKLSSVTAADTAVYYCTSVHQETKKYQSPRSAKELRCQCIKTYSKPFHPKFIKELRVIESGPHCANTEIIVKLSDGRELCLDPKENWVQRVVEKFLKRAENSGSGSYTYNYEWHVDVWGQGLLVTVSS light: QSVLTQPPSVSAAPGQKVTISCSGSSSNVGNGYVSWYQQLPGTAPRTLIYGDTSRASGIPDRFSGSKSGTSATLGITGLQTGDEADYYCASAEDSSSNAVFGSGTTLTVLGQPKAAPSVTLFPPSSEELQANKATLVCLISDFYPGAVTVAWKADSSPVKAGVETTTPSKQSNNKYAASSYLSLTPEQWKSHRSYSCQVTHEGSTVEKTVAPTECS | 2 |
| VH4-34+CDR3-IL8_CDR1-Cow_Q5RQ6E / VL1-51 S2A, T5N, P8S, A12G, A13S, P14L, K46R, L47T, D51G, N52D, N53T IgG (antibody, also called BID 43; VH4-34 MutF IL-8 5R6E CD1cow) VH: QVQLREWGAGLLKPSETLSLTCTASGFSLSDKAVGWIRQPPGKGLEWIGEINHSGSTNYNPSLKSRVTISVDTSKNQFSLKLSSVTAADTAVYYCTSVHQETKKYQSPRSAKELRCQCIKTYSKPFHPKFIKELRVIESGPHCANTEIIVKLSDGRELCLDPKENWVQRVVEKFLKRAENSGSGSYTYNYEWHVDVWGQGLLVTVSS light: QAVLNQPSSVSGSLGQKVTISCSGSSSNIGNNYVSWYQQLPGTAPRTLIYGDTKRPSGIPDRFSGSKSGTSATLGITGLQTGDEADYYCASAEDSSSNAVFGSGTTLTVLGQPKAAPSVTLFPPSSEELQANKATLVCLISDFYPGAVTVAWKADSSPVKAGVETTTPSKQSNNKYAASSYLSLTPEQWKSHRSYSCQVTHEGSTVEKTVAPTECS | 10 |
| VH4-34+CDR3-IL8_CDR1-Cow_CDR2-Cow_Q5RQ6E / VL1-51 S2A, T5N, P8S, A12G, A13S, P14L, D51G, N52D, N53T IgG (antibody) VH: QVQLREWGAGLLKPSETLSLTCTASGFSLSDKAVGWIRQPPGKGLEWLGSIDTGGNTGYNPSLKSRVTISVDTSKNQFSLKLSSVTAADTAVYYCTSVHQETKKYQSPRSAKELRCQCIKTYSKPFHPKFIKELRVIESGPHCANTEIIVKLSDGRELCLDPKENWVQRVVEKFLKRAENSGSGSYTYNYEWHVDVWGQGLLVTVSS light: QAVLNQPSSVSGSLGQKVTISCSGSSSNIGNNYVSWYQQLPGTAPKLLIYGDTKRPSGIPDRFSGSKSGTSATLGITGLQTGDEADYYCASAEDSSSNAVFGSGTTLTVLGQPKAAPSVTLFPPSSEELQANKATLVCLISDFYPGAVTVAWKADSSPVKAGVETTTPSKQSNNKYAASSYLSLTPEQWKSHRSYSCQVTHEGSTVEKTVAPTECS | 4 |
| VH4-34+CDR3-IL8_CDR1-Cow_CDR2-E50S_Q5RQ6E / VL1-51 I29V, N32G, K46R, L47T, D51G, N52D, N53T, K54S, P56A IgG (antibody) VH: QVQLREWGAGLLKPSETLSLTCTASGFSLSDKAVGWIRQPPGKGLEWIGSINHSGSTNYNPSLKSRVTISVDTSKNQFSLKLSSVTAADTAVYYCTSVHQETKKYQSPRSAKELRCQCIKTYSKPFHPKFIKELRVIESGPHCANTEIIVKLSDGRELCLDPKENWVQRVVEKFLKRAENSGSGSYTYNYEWHVDVWGQGLLVTVSS light: QSVLTQPPSVSAAPGQKVTISCSGSSSNVGNGYVSWYQQLPGTAPRTLIYGDTSRASGIPDRFSGSKSGTSATLGITGLQTGDEADYYCASAEDSSSNAVFGSGTTLTVLGQPKAAPSVTLFPPSSEELQANKATLVCLISDFYPGAVTVAWKADSSPVKAGVETTTPSKQSNNKYAASSYLSLTPEQWKSHRSYSCQVTHEGSTVEKTVAPTECS | 2 |
| VH4-34+CDR3-IL8_CDR1-Cow_CDR2-E50S_Q5RQ6E / VL1-51 I29V, N32G, K46R, L47T, D51G, N52D, N53T IgG (antibody) VH: QVQLREWGAGLLKPSETLSLTCTASGFSLSDKAVGWIRQPPGKGLEWIGSINHSGSTNYNPSLKSRVTISVDTSKNQFSLKLSSVTAADTAVYYCTSVHQETKKYQSPRSAKELRCQCIKTYSKPFHPKFIKELRVIESGPHCANTEIIVKLSDGRELCLDPKENWVQRVVEKFLKRAENSGSGSYTYNYEWHVDVWGQGLLVTVSS light: QSVLTQPPSVSAAPGQKVTISCSGSSSNVGNGYVSWYQQLPGTAPRTLIYGDTKRPSGIPDRFSGSKSGTSATLGITGLQTGDEADYYCASAEDSSSNAVFGSGTTLTVLGQPKAAPSVTLFPPSSEELQANKATLVCLISDFYPGAVTVAWKADSSPVKAGVETTTPSKQSNNKYAASSYLSLTPEQWKSHRSYSCQVTHEGSTVEKTVAPTECS | 1 |
